This is an account of results in PMC5515408, “Sequence-specific DNA binding by MYC/MAX to low-affinity non-E-box motifs”.

Series [1] addresses T1, MAX:MAX (p21) (human, UniProt P61244-2 1-151). Kind of series: competition; labeled CME probe; EMSA: 10 ul, 0.5 pmol probe, 80 ng poly(dA-dT):(dA-dT), 375 ng/ul BSA, 15 mM Tris-HCl pH 7.9, 100 mM KCl, 15% glycerol, 0.15 mM EDTA, 0.075% NP-40, 7.5 mM 2-mer. Conditions: protein: recombinant; tags: 6xHis; chain copies: 2; annealed complementary oligos.
Series [2] has as its target T1, MAX:MAX (p21). Nature of the series: competition; labeled CME probe; stronger than NE; EMSA: 10 ul, 0.5 pmol probe, 80 ng poly(dA-dT):(dA-dT), 375 ng/ul BSA, 15 mM Tris-HCl pH 7.9, 100 mM KCl, 15% glycerol, 0.15 mM EDTA, 0.075% NP-40, 7.5 mM 2-mer. The following applies: protein: recombinant; tags: 6xHis; chain copies: 2; annealed complementary oligos. In general terms: Mobility shift assays separate free from complexed probe on a gel.

Series [3] has as its target T2, MYC (p64);MAX (p21), in MYC:MAX (human;human, UniProt P01106-1;P61244-2 1-439;1-151, |). Nature of the series: EMSA competition; EMSA: 10 ul, 0.5 pmol probe, 80 ng poly(dA-dT):(dA-dT), 375 ng/ul BSA, 15 mM Tris-HCl pH 7.9, 100 mM KCl, 15% glycerol, 0.15 mM EDTA, 0.075% NP-40, 7.5 mM 2-mer. Conditions: protein: recombinant;recombinant; tags: 6xHis;6xHis; copies: 1;1; label: 32P (Klenow fill-in with [alpha-32P]dGTP) as probe; annealed complementary oligos; probe Klenow-filled.

Series [4] concerns the target T1, MAX:MAX (p21). The description is as above. The following applies: protein: recombinant; tags: 6xHis; chain copies: 2; label: 32P (Klenow fill-in with [alpha-32P]dGTP) as probe; annealed complementary oligos; probe Klenow-filled.
The target of series [5] is T2, MYC (p64);MAX (p21), in MYC:MAX. Nature of the series: EMSA; EMSA: 10 ul, 0.5 pmol probe, 80 ng poly(dA-dT):(dA-dT), 375 ng/ul BSA, 15 mM Tris-HCl pH 7.9, 100 mM KCl, 15% glycerol, 0.15 mM EDTA, 0.075% NP-40, 7.5 mM 2-mer. The following applies: protein: recombinant;recombinant; tags: 6xHis;6xHis; copies: 1;1; label: 32P (Klenow fill-in with [alpha-32P]dGTP) as probe; annealed complementary oligos; probe Klenow-filled.

The target of series [6] is T1, MAX:MAX (p21). Described as above. The following applies: protein: recombinant; tags: 6xHis; chain copies: 2; label: 32P (Klenow fill-in with [alpha-32P]dGTP) as probe; annealed complementary oligos; probe Klenow-filled.

T1 sequence (P61244 other isoform, or with tags, fused parts or gaps): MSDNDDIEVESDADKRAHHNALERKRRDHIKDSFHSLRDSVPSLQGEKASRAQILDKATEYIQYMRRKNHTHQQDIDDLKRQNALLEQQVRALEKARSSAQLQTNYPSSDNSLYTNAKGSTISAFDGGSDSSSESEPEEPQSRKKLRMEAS
T2 sequence (P01106 16-454, chain 1 of 2): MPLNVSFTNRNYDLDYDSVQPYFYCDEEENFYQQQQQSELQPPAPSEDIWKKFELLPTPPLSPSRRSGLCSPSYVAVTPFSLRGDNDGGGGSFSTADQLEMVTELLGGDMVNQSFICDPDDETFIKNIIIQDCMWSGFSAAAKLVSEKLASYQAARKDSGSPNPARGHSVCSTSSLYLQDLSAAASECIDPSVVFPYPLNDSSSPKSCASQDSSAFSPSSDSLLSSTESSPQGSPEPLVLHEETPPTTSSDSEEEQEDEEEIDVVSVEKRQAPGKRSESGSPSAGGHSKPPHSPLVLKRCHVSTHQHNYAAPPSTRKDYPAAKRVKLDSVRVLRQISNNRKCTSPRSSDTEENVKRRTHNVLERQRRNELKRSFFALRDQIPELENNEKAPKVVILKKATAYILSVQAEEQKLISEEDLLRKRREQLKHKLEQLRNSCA
T2 sequence (P61244 other isoform, or with tags, fused parts or gaps |, chain 2 of 2): as the sequence (P61244 other isoform, or with tags, fused parts or gaps) above

B1: NE-V1 (dsDNA)
DNA 1: CCGGCTGATACGTTGTATTAATAG
DNA 2: CTATTAATACAACGTATCAGCCGG
B1: in the series with MAX:MAX (p21) [1], the binding result is on record as “no binding”.

B2: NE-V2 (dsDNA)
DNA 1: CCGGCTGAGACGTTGTATTAATAG
DNA 2: CTATTAATACAACGTCTCAGCCGG
As to B2, in the series with MAX:MAX (p21) [1], the binding result is “no binding”.

B3: E-V1 (dsDNA)
DNA 1: CCGGCTGACACGTTGTATTAATAG
DNA 2: CTATTAATACAACGTGTCAGCCGG
For B3, the binding result in the series with MAX:MAX (p21) [2] is reported as “binds”.

B4: NE (dsDNA)
DNA 1: CCGGCTGAAACGTTGTATTAATAG
DNA 2: CTATTAATACAACGTTTCAGCCGG
Consider B4, for which the results for the binding signal (in series [3]; with MAX:MAX (p21) [4]) were ~20 fold lower affinity than CME and ~33 fold lower affinity than CME, respectively.

B5: CME (dsDNA)
DNA 1: CCGGCTGACACGTGGTATTAATAG
DNA 2: CTATTAATACCACGTGTCAGCCGG
For B5, the binding result (in series [5]; with MAX:MAX (p21) [6]) was “binds” in each case.

B6: Ctrl (dsDNA)
DNA 1: CCGGCTGATTAGCAGTATTAATAG
DNA 2: CTATTAATACTGCTAATCAGCCGG
With B6, the binding result (in series [5]; with MAX:MAX (p21) [6]) was “no binding” in each case.

B7: NE-V4 (dsDNA)
DNA 1: CCGGCTGAAAGCTTGTATTAATAG
DNA 2: CTATTAATACAAGCTTTCAGCCGG
Turning to B7, the binding result in the series with MAX:MAX (p21) [1] is “no binding”.

B8: NE-V3 (dsDNA)
DNA 1: CCGGCTGATACGTAGTATTAATAG
DNA 2: CTATTAATACTACGTATCAGCCGG
On to B8, for which the binding result in the series with MAX:MAX (p21) [1] is recorded as “no binding”.
